Source: patent US20250011363A1, “OPTIMIZED SHORTENED PEPTIDE THAT BINDS TO ACETYLCHOLINE RECEPTOR, AND USE THEREOF” (SKINMED CO., LTD., priority 2021, published 2025)

Biological target: acetylcholine receptor
Assay: SPR, AchR immobilized on CM5 chip, peptide at 10 uM

| Binding affinity (RU) | Binder |
| --- | --- |
| 31 | KKAHMR [6mer-1-826] |
| 25 | RRIHKK [6mer-1-829] |
| 26 | KRTADK [6mer-1-835] |
| 22 | RRCMIK [6mer-1-836] |
| 16 | RRIMKR [6mer-1-817] |
| 12 | RKKTIR [6mer-1-806] |
| 13 | RRDKNR [6mer-1-807] |
| 19 | RRYKNR [6mer-1-833] |
| 26 | RKDHMK [6mer-1-812] |
| 12 | RKCNAR [6mer-1-810] |
| 19 | KRDHAK [6mer-1-837] |
| 30 | RRKKKR [6mer-1-799] |
| 12 | KRHTGK [6mer-1-823] |
| 15 | RREHIR [6mer-1-800] |
| 12 | KKMNIK [6mer-1-824] |
| 22 | RRTTNR [6mer-1-821] |
| 30 | RKEKWK [6mer-1-825] |
| 32 | RKYHGR [6mer-1-802] |
| 26 | RRPNMK [6mer-1-828] |
| 16 | KRHCHK [6mer-1-811] |
| 15 | KKNPWK [6mer-1-831] |

| Binding affinity (RU) | Binder |
| --- | --- |
| 15 | KKCNAK [6mer-1-814] |
| 14 | RKIKAR [6mer-1-818] |
| 31 | RKMKHK [6mer-1-803] |
| 17 | KRMHAK [6mer-1-819] |
| 18 | KKCAVK [6mer-1-801] |
| 12 | RKYWGK [6mer-1-832] |
| 12 | KRNDGK [6mer-1-820] |
| 31 | KRDPFR [6mer-1-804] |
| 14 | RKIDFK [6mer-1-816] |
| 12 | KKKSNR [6mer-1-809] |
| 30 | RKKKFR [6mer-1-827] |
| 24 | KRDTMK [6mer-1-805] |
| 33 | KKTTMK [6mer-1-830] |
| 24 | RRFEKK [6mer-1-808] |
| 17 | KREPIK [6mer-1-822] |
| 15 | RREDFK [6mer-1-813] |
| 17 | KRNTWK [6mer-1-838] |
| 23 | RRFEMR [6mer-1-815] |
| 29 | KRNWAK [6mer-1-839] |
| 17 | KRNTIR [6mer-1-834] |

Biological target: acetylcholine receptor
Assay: SPR, AchR immobilised on CM5 chip, peptide 10 uM

| Binding affinity (RU) | Binder |
| --- | --- |
| 30 | KKEKKK [6mer-2-788] |
| 15 | RHPAKK [6mer-2-772] |
| 24 | KPNMKK [6mer-2-770] |
| 18 | KPWPKR [6mer-2-782] |
| 16 | RTHNKR [6mer-2-795] |
| 13 | KAAHRR [6mer-2-779] |
| 12 | RFPWRK [6mer-2-776] |
| 24 | KNENRK [6mer-2-789] |
| 22 | KYMGRK [6mer-2-768] |
| 32 | RDMVRK [6mer-2-783] |
| 27 | KNMNRK [6mer-2-791] |
| 23 | RCAGRR [6mer-2-790] |
| 13 | RICGRK [6mer-2-767] |
| 31 | RNAVKK [6mer-2-764] |
| 23 | RPTFRK [6mer-2-766] |
| 19 | RHCIKR [6mer-2-797] |
| 24 | KFEERK [6mer-2-762] |
| 13 | RAEDKR [6mer-2-792] |
| 32 | RMMARR [6mer-2-796] |

| Binding affinity (RU) | Binder |
| --- | --- |
| 17 | RDTPKK [6mer-2-798] |
| 29 | RMHKKR [6mer-2-793] |
| 31 | KNDVRR [6mer-2-777] |
| 13 | RCPFRK [6mer-2-769] |
| 26 | KAEWRK [6mer-2-784] |
| 19 | KMKERR [6mer-2-763] |
| 28 | KTMNRK [6mer-2-781] |
| 31 | KITIRK [6mer-2-780] |
| 23 | KHSPRK [6mer-2-765] |
| 31 | RHCHRR [6mer-2-785] |
| 30 | RMEMRK [6mer-2-786] |
| 21 | RNAPKK [6mer-2-778] |
| 19 | KAEMRR [6mer-2-794] |
| 26 | KMSMKK [6mer-2-775] |
| 11 | KPDARR [6mer-2-773] |
| 19 | RIWHKK [6mer-2-787] |
| 17 | KFDARK [6mer-2-774] |
| 26 | KITARR [6mer-2-771] |
